The record followed here is PMC2811064.

The term stoichiometry N denotes a count of units in the complex or per binding partner.

The target in this assay is semi-synthetic KcsA^(70,82) channel (UniProt P0A334). Nature of the assay: SDS-PAGE.

“semi-synthetic KcsA^(70,82) channel (from UniProt P0A334 1-69; P0A334 82-160) (natural protein)” displayed a stoichiometry N of 4.
